Laboratory results reported in patent publication US20240317847A1 (Bayer, published 2024).

T1: murine IL-11 (mouse, UniProt P47873 22-199)
T1 sequence: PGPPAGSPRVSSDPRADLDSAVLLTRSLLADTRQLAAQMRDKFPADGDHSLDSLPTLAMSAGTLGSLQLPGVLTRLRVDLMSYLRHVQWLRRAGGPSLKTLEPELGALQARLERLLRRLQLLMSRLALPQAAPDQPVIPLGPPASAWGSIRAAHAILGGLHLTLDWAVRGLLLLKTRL

T2: human IL-11 (human, UniProt P20809 22-199)
T2 sequence: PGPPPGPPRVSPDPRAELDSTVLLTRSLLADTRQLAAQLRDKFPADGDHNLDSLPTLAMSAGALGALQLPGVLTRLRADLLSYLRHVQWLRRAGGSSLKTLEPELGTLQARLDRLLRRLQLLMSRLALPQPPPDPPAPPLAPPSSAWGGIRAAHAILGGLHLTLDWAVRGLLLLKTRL

T3: human IL2Ra (human, UniProt P01589 22-240, limits assumed)
T3 construct: bought protein, coated on the plate; also called hIL2RA; IL-2 receptor alpha
T3 sequence (looked up): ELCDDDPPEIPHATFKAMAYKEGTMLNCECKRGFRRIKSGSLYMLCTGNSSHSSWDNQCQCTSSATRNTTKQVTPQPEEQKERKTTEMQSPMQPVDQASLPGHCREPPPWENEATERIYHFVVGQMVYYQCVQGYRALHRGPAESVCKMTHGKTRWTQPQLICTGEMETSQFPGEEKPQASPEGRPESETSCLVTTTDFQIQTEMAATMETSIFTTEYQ


Tests used:
[1] = target: T1, murine IL-11; test: cell-based or functional assay
[2] = target: T2, human IL-11; test: cell-based or functional assay
[3] = target: T3, human IL2Ra; test: IL2Ra direct binding ELISA, signal ratio to isotype control
Description: IL2RA (Peprotech, Germany, #200-02RC) was coated at 1 or 0 μg/ml (buffer only control) in 30 μl coating buffer (Candor, #113500) per well on a 384 well microtiter plate (Maxisorb, Nunc, #460518) over night at 4-8° C. After two washes with 50 μl/well washing buffer (PBS+0.05% Tween, pH 7.4), the plates were incubated for two hours at room temperature with 50 μl/well SmartBlock (Candor, #113500). After blocking, the plates were washed three times with washing buffer. Then, a dilution series of the respective antibody (1E-7 [M] down to 2E-13 [M]) in PBS+0.05% Tween, 10% SmartBlock were added in 30 μl to the microtiter plate and incubated for 90 min at room temperature. After three additional washes, 30 μl anti mouse IgG HRP-conjugated antibody (Biotechne, HAF007), diluted 1:1000 in PBS+0.05% Tween (pH 7.4), were added per well and incubated for one hour. After three additional washes, a mixture of Amplex red (Invitrogen, #12222, 10 mM stock solution in DMSO) 1:1000 diluted in PBS and H2O2 (30%, Merck, #107209)) diluted 1:10000 in PBS were added as substrate with 30 μl per well and incubated for 20 min in the dark. Relative fluorescence was measured with a microtiter plate reader at 535/590 nm.
Next, the 42 antibodies were subjected to an IL2Ra binding ELISA as described in Example 20.

Row | Binder | RGA Efficacy (%) [1] [%] | RGA IC50 [1] [nM] | RGA Efficacy (%) [2] [%] | RGA IC50 [2] [nM] | hIL2RA ELISA Binding: Ratio to Isotpye [3] [ratio]
1 | TPP-26291 (antibody, V domains shown) VH: EVQLLESGGGLVQPGGSLRLSCAASGFTFSSYGMHWVRQAPGKGLEWVSVISYDGSYKYYADSVKGRFTISRDNSKNTLYLQMNSLRAEDTAVYYCAAGVPDYWGQGTLVTVSS VL: QSVLTQPPSASGTPGQRVTISCTGSSSNIGAGYDVHWYQQLPGTAPKLLIYSNNERPSGVPDRFSGSKSGTSASLAISGLRSEDEADYYCAAWDPSLNGPVFGGGTKLTVL | 92.1 | 1.6 | 68.9 | 4.1 | 334
2 | TPP-26292 (antibody, V domains shown) VH: EVQLLESGGGLVQPGGSLRLSCAASGFTFSSYGMHWVRQAPGKGLEWVSVISYDGSYKYYADSVKGRFTISRDNSKNTLYLQMNSLRAEDTAVYYCAAGVPDYWGQGTLVTVSS VL: QSVLTQPPSASGTPGQRVTISCTGSSSNIGAGYDVHWYQQLPGTAPKLLIYSNNERPSGVPDRFSGSKSGTSASLAISGLRSEDEADYYCAAWDESLNGPVFGGGTKLTVL | 94.7 | 0.94 | 74 | 5.6 | 557
3 | TPP-26293 (antibody, V domains shown) VH: EVQLLESGGGLVQPGGSLRLSCAASGFTFSSYGMHWVRQAPGKGLEWVSVISYDGSYKYYADSVKGRFTISRDNSKNTLYLQMNSLRAEDTAVYYCAAGVPDYWGQGTLVTVSS VL: QSVLTQPPSASGTPGQRVTISCTGSSSNIGAWYDVHWYQQLPGTAPKLLIYSNNERPSGVPDRFSGSKSGTSASLAISGLRSEDEADYYCAAWDDSLNGPVFGGGTKLTVL | 96.9 | 0.95 | 73.7 | 2.8 | 384
4 | TPP-26294 (antibody, V domains shown) VH: EVQLLESGGGLVQPGGSLRLSCAASGFTFSSYGMHWVRQAPGKGLEWVSVISYDGSYKYYADSVKGRFTISRDNSKNTLYLQMNSLRAEDTAVYYCAAGVPDYWGQGTLVTVSS VL: QSVLTQPPSASGTPGQRVTISCTGSSSNIGAAYDVHWYQQLPGTAPKLLIYSNNERPSGVPDRFSGSKSGTSASLAISGLRSEDEADYYCAAWDDSLNGPVFGGGTKLTVL | 97.9 | 1.5 | 69.4 | 9.8 | 275
5 | TPP-26295 (antibody, V domains shown) VH: EVQLLESGGGLVQPGGSLRLSCAASGFTFSSYGMHWVRQAPGKGLEWVSVISYDGSYKYYADSVKGRFTISRDNSKNTLYLQMNSLRAEDTAVYYCAAGVPDYWGQGTLVTVSS VL: QSVLTQPPSASGTPGQRVTISCTGSSSNIGAGYDVHWYQQLPGTAPKLLIYSNNERPSGVPDRFSGSKSGTSASLAISGLRSEDEADYYCAAWDHSLNGPVFGGGTKLTVL | 93.9 | 2.1 | 69.2 | 13 | 385
6 | TPP-26296 (antibody, V domains shown) VH: EVQLLESGGGLVQPGGSLRLSCAASGFTFSSYGMHWVRQAPGKGLEWVSVISYDGSYKYYADSVKGRFTISRDNSKNTLYLQMNSLRAEDTAVYYCAAGVPDYWGQGTLVTVSS VL: QSVLTQPPSASGTPGQRVTISCTGSSSNIGAGYDVHWYQQLPGTAPKLLIYSNNERPSGVPDRFSGSKSGTSASLAISGLRSEDEADYYCAAWDNSLNGPVFGGGTKLTVL | 93.1 | 2.9 | 71 | 20 | 379
7 | TPP-26297 (antibody, V domains shown) VH: EVQLLESGGGLVQPGGSLRLSCAASGFTFSSYGMHWVRQAPGKGLEWVSVISYDGSYKYYADSVKGRFTISRDNSKNTLYLQMNSLRAEDTAVYYCAAGVPDYWGQGTLVTVSS VL: QSVLTQPPSASGTPGQRVTISCTGSSSNIGAGYDVHWYQQLPGTAPKLLIYSNNERPSGVPDRFSGSKSGTSASLAISGLRSEDEADYYCAAWQDSLNGPVFGGGTKLTVL | 93.5 | 1.8 | 57.1 | 3.7 | 183
